From PMC8316672 (Journal of Molecular Biology, 2021)

Biological target: SARS-CoV-2 RBD (residues 328–528), deglycosylated, His tag removed (crystallography) (SARS-CoV-2, UniProt P0DTC2)
Assay: crystal structure

| Binder | binding result |
| --- | --- |
| Fab 15033 (Fab, V domains shown) VH: EVQLVESGGGLVQPGGSLRLSCAASGFDLGGYSMHWVRQAPGKGLEWVAGIYASGGATAYADSVKGRFTISADTSKNTAYLQMNSLRAEDTAVYYCARSYYYGGFGMDYWGQGTLVTVSS VL: DIQMTQSPSSLSASVGDRVTITCRASQSVSSAVAWYQQKPGKAPKLLIYSASDLYSGVPSRFSGSRSGTDFTLTISSLQPEDFATYYCQQSYRYPITFGQGTKVEIK | binds |
| Fab 15033-7 (Fab, V domains shown) VH: EVQLVESGGGLVQPGGSLRLSCAASGFDLGGYSMHWVRQAPGKGLEWVAGIYASGGATAYADSVKGRFTISADTSKNTAYLQMNSLRAEDTAVYYCARSYYYGGFGMDYWGQGTLVTVSS VL: DIQMTQSPSSLSASVGDRVTITCRASQSVSSAVAWYQQKPGKAPKLLIYSASDLYSGVPSRFSGSRSGTDFTLTISSLQPEDFATYYCQQSHTYPITFGQGTKVEIK | binds |
